# Reference: US20260146107A1 (ALLIGATOR BIOSCIENCE, published 2026)
# Numbering of substitutions follows the chain as printed.
# T1: human CEACAM5, recombinant (R&D Systems #4128-CM-050) (human, UniProt P06731 35-685)
# T1 construct: Bought; coated in ELISA and used as monomeric analyte in Octet; also called hCEACAM-5; Human CEACAM5-His; not shown: His tag
# T1 sequence (looked up): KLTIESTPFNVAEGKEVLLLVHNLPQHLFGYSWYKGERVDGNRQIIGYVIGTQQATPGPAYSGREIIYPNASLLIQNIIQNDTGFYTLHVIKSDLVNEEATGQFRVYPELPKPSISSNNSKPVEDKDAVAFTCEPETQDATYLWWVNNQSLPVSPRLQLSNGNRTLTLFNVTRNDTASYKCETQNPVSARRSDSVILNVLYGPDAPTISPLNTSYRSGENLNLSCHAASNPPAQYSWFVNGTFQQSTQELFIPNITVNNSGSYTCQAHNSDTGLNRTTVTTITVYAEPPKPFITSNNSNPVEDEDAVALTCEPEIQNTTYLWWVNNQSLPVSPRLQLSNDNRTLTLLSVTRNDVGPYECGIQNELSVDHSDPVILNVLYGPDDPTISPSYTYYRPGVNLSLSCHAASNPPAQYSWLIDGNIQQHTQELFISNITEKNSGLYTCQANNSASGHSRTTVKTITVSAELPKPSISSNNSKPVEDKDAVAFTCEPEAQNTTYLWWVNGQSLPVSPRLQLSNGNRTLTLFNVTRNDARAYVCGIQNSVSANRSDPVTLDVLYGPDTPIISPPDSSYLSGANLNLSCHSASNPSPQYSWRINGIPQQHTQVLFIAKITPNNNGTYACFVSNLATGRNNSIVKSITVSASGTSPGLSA
# T2: human CEACAM1, recombinant (R&D Systems #2244-CM-050) (human, UniProt P13688 35-428)
# T2 construct: also called hCEACAM-1
# T2 sequence (looked up): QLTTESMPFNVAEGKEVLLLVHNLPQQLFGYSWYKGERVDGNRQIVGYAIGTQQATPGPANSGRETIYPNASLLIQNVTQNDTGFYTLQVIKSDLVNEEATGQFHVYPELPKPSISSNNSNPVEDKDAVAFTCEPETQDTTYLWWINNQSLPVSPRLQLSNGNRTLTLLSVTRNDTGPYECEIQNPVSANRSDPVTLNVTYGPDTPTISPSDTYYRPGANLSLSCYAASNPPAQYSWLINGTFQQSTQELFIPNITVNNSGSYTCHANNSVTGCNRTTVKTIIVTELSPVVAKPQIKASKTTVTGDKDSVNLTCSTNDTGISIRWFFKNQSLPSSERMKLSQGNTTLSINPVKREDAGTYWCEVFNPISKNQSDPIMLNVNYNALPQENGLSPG
# B1: AC_05300 (bispecific antibody)
# heavy 1: not shown
# light: ELVMTQSPSSLTVTAGEKVTMSCKSSQSLLNSGNQKNYLTWYQEKPGQPPKLLIYWASTRESGVPDRFTGSGSGTDFTLTISSVQAEDLAVYYCQNDYSYPLTFGAGTKLEIKRTVAAPSVFIFPPSDEQLKSGTASVVCYLNNFYPREAKVQWKVDNALQSGNSQESVTEQDSKDSTYSLWSTLTLSKADYEKHKVYACEVTHQGLSSPVTKSFNRGEC
# heavy 2: EVQLLESGGGLVQPGGSLRLSCAASGFTFSSYAMSWVREAPGKGLEWVSGIGSYGGGTYYADSVKGRFTISRDNSKNTLYLQMNSLRAEDTAVYYCARYVNFGMDYWGQGTLVTVSSASTKGPSVFPLAPSSKSTSGGTAALGCLVKDYFPEPVTVSWNSGALTSGVHTFPAVLQSSGLYSLSSVVEVPSSSLGTQTYICNVNHKPSNTKVDKKVEPKSC
# notes: as AC_05293
# B2: AC_05293 (bispecific antibody)
# heavy 1: not shown
# light: DIQMTQSPSSLSASVGDRVTITCRASQSISSYLNWYQEKPGKAPKLLIYAASSLQSGVPSRFSGSGSGTDFTLTISSLQPEDFATYYCQQYGRNPPTFGQGTKLEIKRTVAAPSVFIFPPSDEQLKSGTASVVCYLNNFYPREAKVQWKVDNALQSGNSQESVTEQDSKDSTYSLWSTLTLSKADYEKHKVYACEVTHQGLSSPVTKSFNRGEC
# heavy 2: EVQLLEQSGAELVRPGTSVKISCKASGYAFTNYWLGWVKERPGHGLEWIGDIFPGSGNIHYNEKFKGKATLTADKSSSTAYMQLSSLTFEDSAVYFCARLRNWDEPMDYWGQGTTVTVSSASTKGPSVFPLAPSSKSTSGGTAALGCLVKDYFPEPVTVSWNSGALTSGVHTFPAVLQSSGLYSLSSVVEVPSSSLGTQTYICNVNHKPSNTKVDKKVEPKSC
# B3: AC_05330 (bispecific antibody)
# heavy 1: not shown
# light: not shown
# heavy 2: EVQLLESGGGLVQPGGSLRLSCAASGFTFSSYAMSWVREAPGKGLEWVSAISGSGGSTYYADSVKGRFTISRDNSKNTLYLQMNSLRAEDTAVYYCARYYGGYYSAWMDYWGQGTLVTVSSASTKGPSVFPLAPSSKSTSGGTAALGCLVKDYFPEPVTVSWNSGALTSGVHTFPAVLQSSGLYSLSSVVEVPSSSLGTQTYICNVNHKPSNTKVDKKVEPKSC
# notes: as AC_05293
# B4: AC_05098 (antibody, V domains shown)
# VH: EVQLLESGGGLVQPGGSLRLSCAASGFTFGSYYMSWVRQAPGKGLEWVSGISGYGYYTGYADSVKGRFTISRDNSKNTLYLQMNSLRAEDTAVYYCARNGYGVIDYWGQGTLVTVSS
# VL: DIQMTQSPSSLSASVGDRVTITCRASQSIRDYLNWYQQKPGKAPKLLIYAASSLQSGVPSRFSGSGSGTDFTLTISSLQPEDFATYYCQQGTFPFTFGQGTKLEIK
# B5: AC_05082 (antibody, V domains shown)
# VH: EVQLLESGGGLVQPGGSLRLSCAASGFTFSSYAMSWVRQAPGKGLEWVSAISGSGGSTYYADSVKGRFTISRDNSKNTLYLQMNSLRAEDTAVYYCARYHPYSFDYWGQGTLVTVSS
# VL: B4 VL with R30S, D31S, G91A, T92G, F93N, F95H
# B6: AC_05084 (antibody, V domains shown)
# VH: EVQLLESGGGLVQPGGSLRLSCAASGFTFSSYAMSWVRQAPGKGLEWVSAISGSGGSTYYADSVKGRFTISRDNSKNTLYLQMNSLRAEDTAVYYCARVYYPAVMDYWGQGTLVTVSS
# VL: B4 VL with R30S, D31S, G91V, T92D, F93G, P94L
# B7: AC_05100 (antibody, V domains shown)
# VH: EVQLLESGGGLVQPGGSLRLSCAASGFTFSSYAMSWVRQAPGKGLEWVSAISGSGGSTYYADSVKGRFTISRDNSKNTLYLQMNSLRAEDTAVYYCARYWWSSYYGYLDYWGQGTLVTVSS
# VL: B4 VL with R30S, D31S, G91A, T92G, F93N, F95H
# B8: AC_05085 (antibody, V domains shown)
# VH: EVQLLESGGGLVQPGGSLRLSCAASGFTFGSYYMYWVRQAPGKGLEWVSSIGGYSGSTYYADSVKGRFTISRDNSKNTLYLQMNSLRAEDTAVYYCARNTPFPGGSGLDYWGQGTLVTVSS
# VL: B4 VL with R30S, D31S, G91A, T92G, F93N, F95H
# B9: AC_05083 (antibody, V domains shown)
# VH: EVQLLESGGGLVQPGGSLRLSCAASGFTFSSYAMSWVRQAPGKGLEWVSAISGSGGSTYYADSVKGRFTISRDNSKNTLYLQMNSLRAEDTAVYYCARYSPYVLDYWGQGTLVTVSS
# VL: DIQMTQSPSSLSASVGDRVTITCRASQSIRGYLNWYQQKPGKAPKLLIYAASSLQSGVPSRFSGSGSGTDFTLTISSLQPEDFATYYCQQPSYPSLFTFGQGTKLEIK
# B10: AC_05079 (antibody, human IgG1, kappa, V domains shown)
# VH: EVQLLESGGGLVQPGGSLRLSCAASGFTFSSSYMGWVRQAPGKGLEWVSSIGSGSYSTSYADSVKGRFTISRDNSKNTLYLQMNSLRAEDTAVYYCARYPSVPFPPPLDYWGQGTLVTVSS
# VL: DIQMTQSPSSLSASVGDRVTITCRASQSISSYLNWYQQKPGKAPKLLIYAASSLQSGVPSRFSGSGSGTDFTLTISSLQPEDFATYYCQQAGNPHTFGQGTKLEIKR
# B11: AC_05086 (antibody, V domains shown)
# VH: B10 VH with R98H, P107H
# VL: B4 VL with R30S, D31S, G91A, T92G, F93N, F95H
# B12: AC_05092 (antibody, V domains shown)
# VH: B10 VH with P107H
# VL: B4 VL with R30S, D31S, Y32D, G91A, T92G, F93N, F95H
# B13: AC_05087 (antibody, V domains shown)
# VH: B10 VH with S101P, P107H
# VL: B4 VL with R30S, D31S, G91A, T92G, F93N, F95H
# B14: AC_05095 (antibody, V domains shown)
# VH: B10 VH with P106S, P107H
# VL: B4 VL with R30S, D31S, G91A, T92G, F93N, F95H
# B15: AC_05096 (antibody, human IgG1, kappa, V domains shown)
# VH: B10 VH with P105R, P107H
# VL: B10 VL
# Molecular target: T3, biotinylated human CD40-mouse Fc (Ancell #504-030) (human, UniProt P25942 21-193, biotinylated (site not stated))
# T3 construct: Bought; also called hCD40-muIg; CD40mFc-biotin; not shown: mouse Ig Fc
# Test: Octet BLI, captured CD40mFc-biotin, bsAb in solution, 1:1 fit
# Method: Kinetic measurements were performed in the Octet RED96 platform using several different setups. […] Monomeric human CD40-His-Avi tag (Acro Biosystems #CD0-H5228), monomeric Human CEACAM5-His (R&D Systems #4128-CM-050) or monomeric Cynomolgus CEACAM5-His (Sino Biological #90891-C08H) were ½ serially diluted in 1× kinetic buffer (Sartorius) starting at 500 nM or 100 nM. […] Binding kinetics was studied in 1× kinetic buffer where association was allowed for 100 sec, 300 sec or 600 sec followed by dissociation for 100 sec, 300 sec or 3600 sec. Sensor tips were regenerated with 10 mM Glycine pH 1.7. Data generated were referenced by subtracting blank or parallel buffer blank, the baseline was aligned to the y-axis, inter-step correction by alignment against dissociation was performed and the data was smoothed by Savitzky-Golay filter in the data analysis software (v9.0.0.14). The processed data was fitted using a 1:1 Langmuir binding model with R² or X² as a measurement of fitting accuracy.
# TABLE 12 Summary of kinetic profiles measured in Octet. Bispecific antibodies in solution (25-0.8 nM, 10-2 or 5-0.7 nM.) interacting with captured CD40mFc-biotin. Association was measured for 300 sec or 600 sec and dissociation was measured for 300 sec or 3600 sec
# T3 sequence (P25942 21-193): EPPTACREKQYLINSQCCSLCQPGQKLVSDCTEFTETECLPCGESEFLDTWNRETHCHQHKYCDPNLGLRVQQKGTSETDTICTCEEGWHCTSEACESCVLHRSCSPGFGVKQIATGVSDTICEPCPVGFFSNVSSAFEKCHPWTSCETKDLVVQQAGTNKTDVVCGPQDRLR
Kd [nM],koff [s⁻¹],kon [M⁻¹ s⁻¹],Binder
8.5,0.0046,540000,B1
76,0.00062,8300,B2
0.45,1.6e-05,35000,B3

# Molecular target: T1, human CEACAM5, recombinant (R&D Systems …)
# Test: ELISA, antigen coated at 0.5 µg/mL, IgG1 antibody at 10 µg/ml, anti-human kappa-HRP, luminescence
# Method: (§1) 96-well plates were coated with 0.5 μg/mL antigen, hCEACAM-5 (4128-CM-050, R&D Systems), hCEACAM-1 (2244-CM-050, R&D Systems), hCEACAM-6(3934-CM-050, R&D Systems) or CEACAM-8 (9639-CM-050, R&D Systems) in PBS over night at 4° C. After washing with PBS/0.05% Tween 20 (PBST), the plates were blocked with PBST, 2% BSA for at least 30 minutes at room temperature before a second round of washing. […] After washing, plates were incubated with 50 μl detection antibody (0.5 μg/ml HRP conjugated goat anti human-kappa light chain, #STAR127P, AbD Serotec). Finally, a final round of washing was performed and bound complexes detected using SuperSignal Pico Luminescent as substrate and luminescence signals were measured using Fluostar Optima.
row,binding result,Binder
1,no binding (tested: 10 µg/ml),B4
2,no binding (tested: 10 µg/ml),B5
3,no binding (tested: 10 µg/ml),B6
4,no binding (tested: 10 µg/ml),B7
5,no binding (tested: 10 µg/ml),B8
6,binds,B9
7,binds,B10
8,binds,B11
9,no binding (tested: 10 µg/ml),B12
10,binds,B13
11,binds,B14
12,binds,B15

# Molecular target: T2, human CEACAM1, recombinant (R&D Systems …)
# Test: as above
# Method: as §1
row,binding result,Binder
1,no binding (tested: 10 µg/ml),B4
2,no binding (tested: 10 µg/ml),B5
3,no binding (tested: 10 µg/ml),B6
4,no binding (tested: 10 µg/ml),B7
5,no binding (tested: 10 µg/ml),B8
6,binds,B9
7,no binding (tested: 10 µg/ml),B10
8,binds,B11
9,no binding (tested: 10 µg/ml),B12
10,binds,B13
11,binds,B14
12,no binding (tested: 10 µg/ml),B15
